From patent publication US20080113383A1 (FIBRO GEN, published 2008)
Where no end group is shown, it is not given here.

What was measured:
Assay in all cases: cell-based or functional assay
EGLN1 = target: EGLN1
EGLN3 = target: EGLN3
EGLN2 = target: EGLN2

In the case of DTDLDLEAEAPYIPADDDFQ [DTDLDLEAEApYIPADDDFQ], the “Activity (%)*” value (EGLN1) is reported as 9.97%, the “Activity (%)*” value (EGLN3) is reported as 16.9% and the “Activity (%)*” value (EGLN2) is reported as 13.2%.

With DTDLDLEAKAPYIPADDDFQ [DTDLDLEAKApYIPADDDFQ] the “Activity (%)*” value (EGLN1) was 63.2%, the “Activity (%)*” value (EGLN3) was 44.1% and the “Activity (%)*” value (EGLN2) was 54.6%.

With DTDLDMEALAPYIPADDDFQ (not fully specified; printed as DTDLDMEALApYIPADDDFQ) [DTDLDMEALApYIPADDDFQ] the “Activity (%)*” value (EGLN1) was 86.4%, the “Activity (%)*” value (EGLN3) was 128% and the “Activity (%)*” value (EGLN2) was 79.1%.

With DTDLDLEMLIPYIPMDDDFQ (not fully specified; printed as DTDLDLEMLIpYIPMDDDFQ) [DTDLDLEMLIpYIPMDDDFQ] the “Activity (%)*” value (EGLN1) was 15.6%, the “Activity (%)*” value (EGLN3) was 101% and the “Activity (%)*” value (EGLN2) was 17.8%.

In the case of DTDLDWEALAPYIPADDDFQ (not fully specified; printed as DTDLDWEALApYIPADDDFQ) [DTDLDWEALApYIPADDDFQ], the “Activity (%)*” value (EGLN1) is reported as 108%, the “Activity (%)*” value (EGLN3) is reported as 120% and the “Activity (%)*” value (EGLN2) is reported as 138%.

In the case of DTDLDLEMLLPYIPMDDDFQ (not fully specified; printed as DTDLDLEMLLpYIPMDDDFQ) [DTDLDLEMLLpYIPMDDDFQ], the “Activity (%)*” value (EGLN1) is reported as 2.36%, the “Activity (%)*” value (EGLN3) is reported as 46.2% and the “Activity (%)*” value (EGLN2) is reported as -0.42%.

With DTDLDLEAGAPYIPADDDFQ [DTDLDLEAGApYIPADDDFQ] the “Activity (%)*” value (EGLN1) was 11.3%, the “Activity (%)*” value (EGLN3) was 12.2% and the “Activity (%)*” value (EGLN2) was 9.84%.

With DTDLDREALAPYIPADDDFQ (not fully specified; printed as DTDLDREALApYIPADDDFQ) [DTDLDREALApYIPADDDFQ] the “Activity (%)*” value (EGLN1) was 19.9%, the “Activity (%)*” value (EGLN3) was 49.8% and the “Activity (%)*” value (EGLN2) was 15.7%.

For DTDLDAEATAPYIPADDDFQ [DTDLDAEATApYIPADDDFQ], the “Activity (%)*” value (EGLN1) was 20.8%, the “Activity (%)*” value (EGLN3) was 18.5% and the “Activity (%)*” value (EGLN2) was 19.4%.

DTDLDLEAYAPYIPADDDFQ (not fully specified; printed as DTDLDLEAYApYIPADDDFQ) [DTDLDLEAYApYIPADDDFQ] was tested, and the “Activity (%)*” value (EGLN1) was 77.2%, the “Activity (%)*” value (EGLN3) was 90.1% and the “Activity (%)*” value (EGLN2) was 67.8%.

DTDLDAEAAAPYIPADDDFQ [DTDLDAEAAApYIPADDDFQ] was tested, and the “Activity (%)*” value (EGLN1) was 12.6%, the “Activity (%)*” value (EGLN3) was 7.18% and the “Activity (%)*” value (EGLN2) was 8.63%.

DTDLDLEMLCPYIPMDDDFQ (not fully specified; printed as DTDLDLEMLCpYIPMDDDFQ) [DTDLDLEMLCpYIPMDDDFQ] was tested, and the “Activity (%)*” value (EGLN1) was 1.94%, the “Activity (%)*” value (EGLN3) was 63.1% and the “Activity (%)*” value (EGLN2) was 0.4%.

DTDLDFEALAPYIPADDDFQ [DTDLDFEALApYIPADDDFQ] was tested, and the “Activity (%)*” value (EGLN1) was 65.2%, the “Activity (%)*” value (EGLN3) was 142% and the “Activity (%)*” value (EGLN2) was 58.6%.

For DTDLDAEALAPYIPADDDFQ [DTDLDAEALApYIPADDDFQ], the “Activity (%)*” value (EGLN1) was 51%, the “Activity (%)*” value (EGLN3) was 87.2% and the “Activity (%)*” value (EGLN2) was 46.9%.

DTDLDLEAMAPYIPADDDFQ [DTDLDLEAMApYIPADDDFQ] was tested, and the “Activity (%)*” value (EGLN1) was 63.7%, the “Activity (%)*” value (EGLN3) was 94.3% and the “Activity (%)*” value (EGLN2) was 55.8%.

DTDLDLEMLFPYIPMDDDFQ (not fully specified; printed as DTDLDLEMLFpYIPMDDDFQ) [DTDLDLEMLFpYIPMDDDFQ] was tested, and the “Activity (%)*” value (EGLN1) was 4.16%, the “Activity (%)*” value (EGLN3) was 59.3% and the “Activity (%)*” value (EGLN2) was 0.63%.

For DTDLDDEALAPYIPADDDFQ [DTDLDDEALApYIPADDDFQ], the “Activity (%)*” value (EGLN1) was 51%, the “Activity (%)*” value (EGLN3) was 65% and the “Activity (%)*” value (EGLN2) was 42.8%.

With DTDLDVEATAPYIPADDDFQ (not fully specified; printed as DTDLDVEATApYIPADDDFQ) [DTDLDVEATApYIPADDDFQ] the “Activity (%)*” value (EGLN1) was 20.4%, the “Activity (%)*” value (EGLN3) was 24% and the “Activity (%)*” value (EGLN2) was 13.6%.

In the case of DTDLDLEATAPYIPADDDFQ [DTDLDLEATApYIPADDDFQ], the “Activity (%)*” value (EGLN1) is reported as 68.2%, the “Activity (%)*” value (EGLN3) is reported as 63.2% and the “Activity (%)*” value (EGLN2) is reported as 54.9%.

For DTDLDLEAIAPYIPADDDFQ [DTDLDLEAIApYIPADDDFQ], the “Activity (%)*” value (EGLN1) was 88%, the “Activity (%)*” value (EGLN3) was 104% and the “Activity (%)*” value (EGLN2) was 89%.

DTDLDIEALAPYIPADDDFQ [DTDLDIEALApYIPADDDFQ] was tested, and the “Activity (%)*” value (EGLN1) was 50.7%, the “Activity (%)*” value (EGLN3) was 149% and the “Activity (%)*” value (EGLN2) was 43.7%.

With DTDLDIEAIAPYIPADDDFQ [DTDLDIEAIApYIPADDDFQ] the “Activity (%)*” value (EGLN1) was 72.5%, the “Activity (%)*” value (EGLN3) was 72.8% and the “Activity (%)*” value (EGLN2) was 64.3%.

For DTDLDLEMLHPYIPMDDDFQ (not fully specified; printed as DTDLDLEMLHpYIPMDDDFQ) [DTDLDLEMLHpYIPMDDDFQ], the “Activity (%)*” value (EGLN1) was 2.41%, the “Activity (%)*” value (EGLN3) was 68.2% and the “Activity (%)*” value (EGLN2) was 3.47%.

DTDLDLEMLKPYIPMDDDFQ (not fully specified; printed as DTDLDLEMLKpYIPMDDDFQ) [DTDLDLEMLKpYIPMDDDFQ] was tested, and the “Activity (%)*” value (EGLN1) was 68.7%, the “Activity (%)*” value (EGLN3) was 74.5% and the “Activity (%)*” value (EGLN2) was 57.7%.

With DTDLDLEMLQPYIPMDDDFQ (not fully specified; printed as DTDLDLEMLQpYIPMDDDFQ) [DTDLDLEMLQpYIPMDDDFQ] the “Activity (%)*” value (EGLN1) was 45.1%, the “Activity (%)*” value (EGLN3) was 59.9% and the “Activity (%)*” value (EGLN2) was 38.1%.

DTDLDLEARAPYIPADDDFQ [DTDLDLEARApYIPADDDFQ] was tested, and the “Activity (%)*” value (EGLN1) was 79%, the “Activity (%)*” value (EGLN3) was 68.6% and the “Activity (%)*” value (EGLN2) was 78.6%.

With DTDLDLEANAPYIPADDDFQ [DTDLDLEANApYIPADDDFQ] the “Activity (%)*” value (EGLN1) was 49.2%, the “Activity (%)*” value (EGLN3) was 42.5% and the “Activity (%)*” value (EGLN2) was 37.7%.

With DTDLDLEAFAPYIPADDDFQ [DTDLDLEAFApYIPADDDFQ] the “Activity (%)*” value (EGLN1) was 82.2%, the “Activity (%)*” value (EGLN3) was 76.4% and the “Activity (%)*” value (EGLN2) was 73.9%.

In the case of DTDLDEEALAPYIPADDDFQ [DTDLDEEALApYIPADDDFQ], the “Activity (%)*” value (EGLN1) is reported as 49.6%, the “Activity (%)*” value (EGLN3) is reported as 80.8% and the “Activity (%)*” value (EGLN2) is reported as 44.3%.

For DTDLDLEMLMPYIPMDDDFQ (not fully specified; printed as DTDLDLEMLMpYIPMDDDFQ) [DTDLDLEMLMpYIPMDDDFQ], the “Activity (%)*” value (EGLN1) was 26.4%, the “Activity (%)*” value (EGLN3) was 58.9% and the “Activity (%)*” value (EGLN2) was 27.8%.

DTDLDLEMLRPYIPMDDDFQ (not fully specified; printed as DTDLDLEMLRpYIPMDDDFQ) [DTDLDLEMLRpYIPMDDDFQ] was tested, and the “Activity (%)*” value (EGLN1) was 19.8%, the “Activity (%)*” value (EGLN3) was 77.6% and the “Activity (%)*” value (EGLN2) was 14.3%.

With DTDLDAEASAPYIPADDDFQ [DTDLDAEASApYIPADDDFQ] the “Activity (%)*” value (EGLN1) was 10.5%, the “Activity (%)*” value (EGLN3) was 4.11% and the “Activity (%)*” value (EGLN2) was 8.82%.

With DTDLDLEMLEPYIPMDDDFQ (not fully specified; printed as DTDLDLEMLEpYIPMDDDFQ) [DTDLDLEMLEpYIPMDDDFQ] the “Activity (%)*” value (EGLN1) was 2.27%, the “Activity (%)*” value (EGLN3) was 52.8% and the “Activity (%)*” value (EGLN2) was 3.35%.

For DTDLDTEAVAPYIPADDDFQ (not fully specified; printed as DTDLDTEAVApYIPADDDFQ) [DTDLDTEAVApYIPADDDFQ], the “Activity (%)*” value (EGLN1) was 16.6%, the “Activity (%)*” value (EGLN3) was 26.8% and the “Activity (%)*” value (EGLN2) was 19%.

DTDLDLEAWAPYIPADDDFQ (not fully specified; printed as DTDLDLEAWApYIPADDDFQ) [DTDLDLEAWApYIPADDDFQ] was tested, and the “Activity (%)*” value (EGLN1) was 50.4%, the “Activity (%)*” value (EGLN3) was 37.3% and the “Activity (%)*” value (EGLN2) was 42.4%.

In the case of DTDLDTEATAPYIPADDDFQ (not fully specified; printed as DTDLDTEATApYIPADDDFQ) [DTDLDTEATApYIPADDDFQ], the “Activity (%)*” value (EGLN1) is reported as 21.9%, the “Activity (%)*” value (EGLN3) is reported as 16.5% and the “Activity (%)*” value (EGLN2) is reported as 24.8%.
